B1: ADI-49041 (antibody, V domains shown)
VH: EVQLVESGGGLVKPGGSLRLSCAASGFTFSHAWMTWVRQAPGKGLEWVGRIKSETDGGTANYAAPVKGRFTISRDDSKNTVYLQMVSLKTEDTAVYYCATAGIFGVVIMKGFDHWGQGTTVTVSS
VL: DIVMTQSPSTLSASVGDRVVITCRASQSISNWLAWYQQKSGKAPKLLIYKASRLESGVPSTFSGSGSGTEFTLTISSLQADDFASYYCQQYNDYPWTFGQGTKVEIK
notes: full-length IgG
B2: ADI-48462 (antibody, V domains shown)
VH: QVQLVQSGGGVVQPGRSLRLSCAASGFTFSSYGMHWVRQAPGKGLEWVAVIWYDGSNKYYADSVKGRFTISRDNSKNTLYLQMNSLRAEDTAVYYCARDYYGSGDGYFDYWGQGTTVTVSS
VL: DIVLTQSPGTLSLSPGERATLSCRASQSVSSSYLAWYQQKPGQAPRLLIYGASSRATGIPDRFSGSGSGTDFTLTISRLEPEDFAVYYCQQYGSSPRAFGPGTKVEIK
notes: full-length IgG; also called Antibody Number 100
B3: ADI-42225 (antibody, V domains shown)
VH: QVQLQESGPGLVKPSGTLSLTCAVSGGSITSSNWWSWVRQPPGKGLEWIGDIYHSGSTSYNPSLKSRVTISVDKSKNHFSLKLTSVTAADTAVYYCARIAAGYSTSWYYFDYWGQGTLVTVSS
VL: QSALTQPPSVSAAPGQKVTISCSGSSSNIGNSYVSWYQQVPGTAPKLLIYDNNKRPSGIPDRFSGSKSGTSATLGITGLQAGDEADYYCGTWDTSLSAGRVFGRGTKLTVL
notes: full-length IgG; also called Antibody Number 10
B4: ADI-42181 (antibody, V domains shown)
VH: EVQLVESGGGLVQPGGSLRLSCAASGFTFSNYWMNWVRQAPGKGLEWVANIKQDGSEKYYVDSVKGRFTISRDNAKNSLYLQMNSLRAEDTAVYYCARKLSYSSGWYYFDYWGQGTLVTVSS
VL: DIVMTQTPATLSVSPGERATLSCRASQSVSSNVAWYQQKPGQAPRLLIHGASTRATGIPARFSGSGSGTEFTLTISSLQSEDFAVYYCQQYNNWPPLTFGGGTKLEIK
notes: full-length IgG
B5: ADI-42149 (antibody, V domains shown)
VH: QVQLVQSGAEVRKPGASVKVSCKASGYTFTSYGISWVRQAPGQGLEWMGWISTYNGNTNYAQKLQGRVTMTTDTSTSTAYMELRSLRSDDTAVYYCAREIDSNYVFDYWGQGTLVTVSS
VL: QSVLTQPASVSGSPGQSITISCTGTSSDVGGYNYVSWYQQHPGKAPKLMIYEVSNRPSGVSNRFSGSKSGNTASLTISGLQAEDEADYYCSSYTSSGTNIFGTGTKLTVL
notes: full-length IgG
B6: ADI-42216 (antibody, V domains shown)
VH: QVTLKESGPVLVKPTETLTLTCTVSGFSLSNTKMGVTWIRQPPGKALEWLAHIFSNDEKSCNTSLKSRLTISKDTSKSQVVLTMTNMDPVDTATYYCARLWFTEYPGAFDIWGQGTMVTVSS
VL: QAVVTQPPSASGSPGQSVTISCTGTSSDVGGYNYVSWYQQHPGKAPKLMVYEVTKRPSGVPDRFSGSKSGNAASLTVSGLQAEDEAEYYCSSYAGSNALVFSGGTKLTVL
notes: full-length IgG; also called Antibody Number 112
B7: ADI-42172 (antibody, V domains shown)
VH: QVQLVESGGGVVQPGRSLRLSCAASGFTFSSYGMHWVRQAPGKGLEWVAVMSYDGSNKYYADSLKGRFTISRDNSKNTLYLQMNSLRAEDTAVYFCAKAYDSSAYYYLDYWGQGTLVTVSS
VL: EIVLTQSPSTLSASVGDRVTITCRASQSISDWLAWYQQKPGKAPNLLIYRASSLESGVPSRFSGSGSGTEFTLTISSLQPDDFATYYCQQYNRYPYTFGQGTKVEIK
notes: full-length IgG; also called Antibody Number 117
B8: ADI-42200 (antibody, V domains shown)
VH: EVQLVESGGGVVQPGRSLRLSCAASGLTFSTYTLHWVRQAPGKGLEWVAVISSDGGNKYYADSVKGRFTISRDSSKNTLYLQMNSLRTEDTAVYYCAGGSPDYWGQGALVTVSS
VL: EIVMTQSPATLSLSPGERGTLSCRTSQSVSSFLAWYQQKPGQAPRLLMYDASNRATGIPARFSGSGSGTDFTLTISSLEPEDFAVYYCQQRSNWPYTFGQGTKVDIK
notes: full-length IgG; also called Antibody Number 102
B9: ADI-42195 (antibody, V domains shown)
VH: EVQLLESGGGMVQPGRSLRLSCAASGFTFDDYDMHWVRQGPGKGLEWVSGISWNSGGRGYADSVKGRFTISRDNAKNSLYLQMNSLRVEDTALYYCVKDYCSGGRCYSFDYWGQGTLVTVSS
VL: DIQMTQSPSSLSASVGDRVTITCQASQDISNYLNWYQQKPGKAPKLLIYDVSKLKTGVPPRFSGSGSGTDFTFTISSLQPEDIATYYCQQWGTFGQGTKVDIK
notes: full-length IgG; also called Antibody Number 116
B10: ADI-42227 (antibody, V domains shown)
VH: EVQLLESGAEVKEPGSSVKVSCKPSGGTFSSYVISWVRQAPGQGLEWMGGIIPIFGTPNYAQKFQGRVTITADDSTSTAHMELSSLTSDDTAVYYCARETYYYGSGSVPVHDWGQGTLVTVSS
VL: EIVMTQSPSSLSASVGDRVTITCRASQGIRNDLGWYQQKPGKAPKRLIYAASSLQSGVPSRFSGSGSGREFTLTISSLQPEDFATYYCLQHNTYPWTFGQGTKVEIK
notes: full-length IgG
B11: ADI-45126 (antibody, V domains shown)
VH: EVQLVESGGGLVQPGGSLRLSCAASGFTFSDHYMDWVRQAPGKGLEWVGRSTNKPNSYTTTYAASVRGRFTISRDESKNSLYLQMNSLKSDDTAVYYCVTTTVILFDYWGQGTLVTVSS
VL: SYELTQPPSVSVSPGQTARITCSGDALPKKYVYWFQQKSGQAPVLVIYEDRRGPSGIPERFSGSTSGTMATLTIRGAQVEDEADYFCYSTDSSGLLGVFGGGTKLTVL
notes: full-length IgG; also called Antibody Number 106
B12: ADI-42141 (antibody, V domains shown)
VH: QVQLVQSGGGLVQPGGSLRLSCAASGFTFSDHYMDWVRQAPGKGLEWVGRTRNKANSYTTKYAASVKGRFTISRDDSKNSLYLQMNSLKTEDTAVYYCARVEGGAWGAFDIWGQGTTVTVSS
VL: SYVLTQPPSVSVSPGQTARITCSGDALPKQYGYWYQQKPGQAPVLVIYKDSERPSGIPERFSGSSSGTTVTLTISGVQAEDEADYYCQSADRSGTVVFGGGTKLTVL
notes: full-length IgG; also called Antibody Number 111
B13: ADI-50220 (antibody, V domains shown)
VH: EVQLVESGGGVVQPGRSLRLSCAASGFIFSSNSMHWVRQAPGKGLKWVAIISNDGRNKFYADAVKGRFTVSRDNSKNTLYLQMNSLRPEDTAVYYCARGYDSSGYWGFGDNWGQGTLVTVSS
VL: DIQVTQSPSTLSASVGDRVSITCRASQTISSWLAWYQQKPGKAPKLLMYKASNLQSGVPSRFTGSGSGTEFTLTISSLQPDDFATYYCQQYYSYPYTFGPGTKVDIK
notes: full-length IgG; also called Antibody Number 110
B14: ADI-45074 (antibody, V domains shown)
VH: QVQLQQWGAGLLKPSETLSLTCAVYGGSFSGYYWSWIRQPPGKGLEWIGEINHRGSTDYNPSLKSRVTMSVDTSKNQFSLRLSSVTAADTALYYCARGRLAWGLRGQKSPNFFAYWGQGATVTVSS
VL: DIQMTQSPDSLAVSLGERATINCKSSQSVFYSSNSQNYLAWYQQKPGQPPKLLIYWASTRESGVPDRFSGSGSATDFSLTISSLQAEDVAVYYCQQFHSPPWTFGQGTKLEIK
notes: full-length IgG
B15: ADI-46741 (antibody, V domains shown)
VH: EVQLVESGPGLVKPSETLSLTCTVSGGSISSYYWSWIRQPPGKGLEWIGYIYYSGSTNYNPSLKSRVTISVDTSKNQFSLKLSSVTAADTAVYYCARETCSGGSCYYRVGSAFDIWGQGTTVTVSS
VL: SYELIQLPSASVAPGKTARITCGGNNIGSKSVHWYQQKPGQAPVLVVYDDSDRPSGIPERFSGSNSGNTATLTISRVEAGDEADYYCQVWDSSSDHEVFGGGTKLTVL
notes: full-length IgG; also called Antibody Number 115
B16: ADI-49039 (antibody, V domains shown)
VH: QVQLQESGPGLVKPSETLSLTCAVSGYSISSGFYWGWIRQPPGKGLEWIGSMYQSGITYYNPSLKSRVTISVDTSKSQFSLKLTSVTAADTAMYYCARNAPENYYGSGRESFDIWGQGTMVTVSS
VL: QSVLTQPPSVSAAPGQKVTISCSGSSSNIGNNYVSWYQQLPGAAPKLLIYDNKKRPSGIPDRFSGSASGTSATMGITGLQTGDEADYYCGTWDSSLSAWVFGGGTKVTVL
notes: full-length IgG; also called Antibody Number 1
B17: ADI-42229 (antibody, V domains shown)
VH: QVQLQESGPGLVKPSETLSLTCAVSGYSISSGFYWGWIRQPPGKGLEWIGSMYHSGITYYNPSLKSRVTISVDTSKNQFSLKLTSVTAADTAMYYCARNAPENYYGSGRESFDIWGQGTTVTVSS
VL: QSVVTQPPSVSAAPGQKVTISCSGSSSNIGNNYVSWYQQFPRTAPKLLIYDNKKRPSGIPDRFSGSASGTSATLGITGLQTGDEADYYCGTWDSSLSAWVFGGGTKVTVL
notes: full-length IgG; also called Antibody Number 3
B18: ADI-49140 (antibody, V domains shown)
VH: EVQLVESGGGLVQPGGSLRLSCAASGFTFSDHYMDWVRQAPGRGLEWVGRSRNKVNSYTTDYAASVKGRFTISRDDSKNSLFLRMNSLKTEDTAVYYCARLTDSGYDDWGLGTLVTVSS
VL: QPELTQPPSVSVSPGQTARITCSGDALSKQYAYWYQQKPGQAPVVVIYKDSERPSGIPERFSGSRSGTTVTLTISGVQAEDEADYYCHSPDSHVVFGGGTKLTVL
notes: full-length IgG
B19: ADI-50534 (antibody, V domains shown)
VH: EVQLQESGPGLVKPSETLSLTCTVSGGSISSSSYYWGWIRQPPGKGLEWIGSIYYSGSTYYNPSLKSRVTISVDTSKNQFSLKLSSVTAADTAVYYCARHSSGSYYLAGYYFDYWGQGTLVTVSS
VL: NFMLTQPHSVSESPGKTVTISCTRSSGSIASNYVQWYQQRPGSAPTTVIYEDNQRPSGVPDRFSGSIDSSSNSASLTISGLKTEDEADYYCQSYDSSNWVFGGGTKLTVL
notes: full-length IgG
B20: ADI-50203 (antibody, V domains shown)
VH: EVQLVESGGGVVQPGRSLRLSCVPSGFTFSSYAMHWVRQAPGKGLEWVAMMSYDGGDKNYADSVKGRFTISRDNSKNTLYLQMRSLRAEDTAIYYCARAYDSRGYYYIEHWGQGTLVTVSS
VL: GIQLTQSPSTLSASVGDRVTITCRASQSVSDWLAWYQQKPGRAPNLLIYRASSLQSGVPSRFSGSGSGTEFTLTINSLQPDDFATYYCQQYKTYWTFGQGTKVEIK
notes: full-length IgG; also called Antibody Number 103
B21: ADI-49139 (antibody, V domains shown)
VH: EVQLVETGSGLVRPSGTLSLTCAVSGDSISSNNWWSWVRQPPGKGLEWIGEIYHSGSTSYNPSLKSRVTISIDKSNNHFSLKLTSVTAADTAVYYCAKDMWAGTTTNWFGPWGQGTLVTVSS
VL: QSVLTQPPSVSAAPGQKVTISCSGSSSNIGYSHVSWYQQLPGTAPKVLIYDNDKRPSGIPDRFSGSKSGTSATLGITGLQTGDEADYYCGTWDTSLGVVFGGGTKLTVL
notes: full-length IgG; also called Antibody Number 11
B22: ADI-45127 (antibody, V domains shown)
VH: EVQLVESGPVLVKPTETLRLTCTVSGFSLSNTKLGVSWIRQPPGKALEWLAHIFSNAEKSSSKSLKSRLSISQDTSKSLVVLTMTNMDPVDTATYFCARIPVEYGTPRGSFDTWGQGTTVTVSS
VL: QSVLTQPPSASGSPGQSVTISCAGTRSDVGGYNFVSWYQQHPGKAPKLLIYEVNKRPSGVPDRFSGSKSANTASLTVSGLQAEDEAEYFCSSYGGNNDLVFGGGTKVTVL
notes: full-length IgG; also called Antibody Number 101

target: T1, recombinant YFV E protein (soluble E, sE; YFV Asibi strain) (Yellow fever virus, Asibi strain, UniProt Q6DV88 286-678); assay: BLI monovalent (IgG on tip)
T1 construct: also called YFV E antigen; YFV E monomer
T1 sequence (Q6DV88 286-678): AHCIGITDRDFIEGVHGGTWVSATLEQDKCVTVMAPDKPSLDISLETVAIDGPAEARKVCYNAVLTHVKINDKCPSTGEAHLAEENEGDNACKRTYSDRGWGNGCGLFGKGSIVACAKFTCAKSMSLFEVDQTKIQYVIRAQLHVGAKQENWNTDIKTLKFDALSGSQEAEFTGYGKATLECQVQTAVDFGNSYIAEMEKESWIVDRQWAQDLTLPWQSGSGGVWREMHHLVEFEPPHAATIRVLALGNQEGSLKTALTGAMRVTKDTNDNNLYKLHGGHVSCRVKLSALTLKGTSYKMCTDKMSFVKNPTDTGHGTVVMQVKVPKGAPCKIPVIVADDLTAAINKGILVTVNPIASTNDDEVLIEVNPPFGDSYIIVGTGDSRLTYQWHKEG

**Q.** How did the Kd turn out when B1 was run?
**A.** 0.997 nM

**Q.** How did the Kd turn out when B2 was run?
**A.** > 100 nM

**Q.** Which Kd does the source give for B3 here?
**A.** 31.5 nM

**Q.** With B4 as the binder, how does the Kd read?
**A.** 31.5 nM

**Q.** How did the Kd turn out when B5 was run?
**A.** 177 nM

**Q.** B6 was tested. Which Kd did it give?
**A.** 11.4 nM

**Q.** Which Kd does the source give for B7 here?
**A.** 129 nM

**Q.** With B8 as the binder, how does the Kd read?
**A.** 5.63 nM

**Q.** For B9, which Kd is on record?
**A.** 1.86 nM

**Q.** Which Kd does the source give for B10 here?
**A.** 0.658 nM

**Q.** Which Kd does the source give for B11 here?
**A.** 1.68 nM

**Q.** B12 was tested. Which Kd did it give?
**A.** 1.75 nM

**Q.** For B13, which Kd is on record?
**A.** 3.64 nM

**Q.** How did the Kd turn out when B14 was run?
**A.** 0.699 nM

**Q.** For B15, which Kd is on record?
**A.** > 100 nM

**Q.** How did the Kd turn out when B16 was run?
**A.** 415 nM

**Q.** B17 was tested. Which Kd did it give?
**A.** 7.87 nM

**Q.** B18 was tested. Which Kd did it give?
**A.** 1.04 nM

**Q.** For B19, which Kd is on record?
**A.** > 100 nM

**Q.** With B20 as the binder, how does the Kd read?
**A.** 22.4 nM

**Q.** B21 was tested. Which Kd did it give?
**A.** 3.45 nM

**Q.** With B22 as the binder, how does the Kd read?
**A.** 6.69 nM

From US20240218054A1 (MABLOC, published 2024)
